From patent US20210301005A1 (Genentech, published 2021)
Changes are numbered by the printed parent chain. Like-named read-outs stand apart in the source and are kept apart here.

B1: h4A11.v7.19 (antibody, human IgG1, kappa, N297G, V domains shown)
VH: EVQLQESGPGLVKPSETLSLTCTVTGFSLSSYTVNWIRQPAGKGLEWIGYISYGGSAYYASWANGRVTISKDTSQVSLKLSSVTAADTAVYFCARHMQVGGAPTGSMAAFDPWGQGTLVTVSS
VL: EIVLTQSPGTLSLSPGERATLSCQSSQSVYNNNYLSWFQQKPGQAPRLLIYGASTLTSGIPDRFSGSGSGTDFTLTISRLEPEDFAVYYCAGGYSGSSDKYAFGGGTKVEIKR
B2: h4A11.v4 (antibody, human IgG1, kappa, N297G, V domains shown)
VH: EQQLQESGPGLVKPSETLSLTCTVTGFSLSSYTVNWVRQPAGKGLEWIGYISYGGSAYYASWANGRFTISKDSSKNQVSLKLSSVTAADTAVYFCARHMQVGGAPTGSMAAFDPWGPGTLVTVSS
VL: DAQLTQSPSSLSASVGDRVTITCQSSQSVYNNNYLSWFQQKPGKPPKLLIYGASTLTSGVPSRFSGSGSGTDFTLTISSLQPEDFATYYCAGGYSGSSDKYAFGGGTKVEIKR
B3: h4A11.v8 (antibody, V domains shown)
VH: B2 VH
VL: DAVLTQTPLSSPVTLGQPASISCQSSQSVYNNNYLSWFQQRPGQPPRLLIYGASTLTSGVPDRFSGSGAGTDFTLKISRVEAEDVGVYYCAGGYSGSSDKYAFGGGTKVEIK
B4: h4A11.v7.17 (antibody, human IgG1, kappa, N297G, V domains shown)
VH: B2 VH with Q2V, V37I, F67V, S73T, F94Y, P117Q
VL: B1 VL
B5: h4A11.v7.16 (antibody, human IgG1, kappa, N297G, V domains shown)
VH: B2 VH with Q2V, V37I, F67V, S73T, V78F, P117Q
VL: B1 VL
B6: h4A11.v7.18 (antibody, human IgG1, kappa, N297G, V domains shown)
VH: B2 VH with Q2V, V37I, F67V, S73T, P117Q
VL: B1 VL
B7: h2A10.v2.7 (antibody, human IgG1, kappa, N297G, V domains shown)
VH: EVQLLESGGGLVQPGGSLRLSCAASGFDFNSYGMSWVRQAPGKGLELVADIVSKTYNYTTYYSDSVKDRFTISRDNSKSTVYLQMNSLRAEDTAVYYCTVAPGGSFDYWGQGTLVTVSS
VL: DIQLTQSPSSLSASVGDRVTITCRASQSVSISRFNLMHWYQHKPGKQPKLLIYRASNLASGIPSRFSGSGSGTDFTLTISSLQPEDFATYYCQHSRESPWTFGGGTKVEIKR
B8: h2A10.v2.9 (antibody, human IgG1, kappa, N297G, V domains shown)
VH: B7 VH with N76D, V81L
VL: B7 VL
B9: h4A11.v1 (antibody, human IgG1, kappa, N297G, V domains shown)
VH: EQQLVESGGGLVQPGGSLRLSCAVSGFSLSSYTVNWVRQAPGKGLEWIGYISYGGSAYYASWANGRFTISKDSAKNSVYLQMNSLRAEDTAVYFCARHMQVGGAPTGSMAAFDPWGPGTLVTVSS
VL: DAVLTQSPDSLAVSLGERATINCQSSQSVYNNNYLSWFQQKPGQPPKLLIYGASTLTSGVPDRFSGSGSGTDFTLTISSLQAEDVAVYYCAGGYSGSSDKYAFGGGTKVEIKR
B10: h4A11.v5 (antibody, human IgG1, kappa, N297G, V domains shown)
VH: B9 VH
VL: B1 VL with I2A, A45P, I60V
B11: h4A11.v6 (antibody, human IgG1, kappa, N297G, V domains shown)
VH: B9 VH
VL: DAVLTQTPLSSPVTLGQPASISCQSSQSVYNNNYLSWFQQRPGQPPRLLIYGASTLTSGVPDRFSGSGAGTDFTLKISRVEAEDVGVYYCAGGYSGSSDKYAFGGGTKVEIKR
B12: h4A11.v2 (antibody, human IgG1, kappa, N297G, V domains shown)
VH: B9 VH
VL: B2 VL
B13: h4A11.v3 (antibody, human IgG1, kappa, N297G, V domains shown)
VH: B2 VH
VL: B9 VL

Key:
[1] = target: T1, human TGFβ2, mature receptor-binding domain (human, UniProt P09858 303-414 (pig entry), The mature TGFβ2 is a disulfide-linked homodimer of this 112-residue chain. The 4A11 epitope spans both monomers (p-1207).); assay: BIAcore T200
T1 construct: Peprotech; also called TGFb2
T1 sequence: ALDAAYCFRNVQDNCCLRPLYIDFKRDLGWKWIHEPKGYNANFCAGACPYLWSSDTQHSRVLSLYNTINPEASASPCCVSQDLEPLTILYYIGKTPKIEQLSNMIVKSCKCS
Protocol: (§1) For binding affinity determinations of all humanized 2A10 antibodies, Surface Plasmon Resonance (SPR) measurement with a BIAcore™-T200 instrument was used. Briefly, series S CM5 biosensor chip with protein A was first applied to capture each humanized 2A10 variant to achieve approximately 100 response units (RU) on each flow cell, following by injection of 3-fold serial dilutions of human TGFβ1, TGFβ2 or TGFβ3 (0.02 nM to 5 nM) in HBS-EP buffer (0.01M HEPES pH 7.4, 0.15M NaCl, 3 mM EDTA and 0.05% v/v surfactant P20) at 25° C. with a flow rate of 50 μl/min for kinetics measurement. Association rates (ko.) and dissociation rates (koff) were calculated using a simple one-to-one Langmuir binding model (BIAcore T200 evaluation software version 2.0) to determine the equilibrium dissociation constant (KD), which was calculated as the ratio koff/kₒₙ.
(§2) Binding affinity determinations of all humanized 4A11 antibodies were performed using SPR measurement with a BIAcore™-T200 instrument, as described above in Example 6 ([…]).

[2] = target: T2, human TGFβ3, mature dimeric form (human, UniProt P10600 301-412); assay: BIAcore T200
T2 construct: Peprotech, expressed in E. coli; also called TGFb3
T2 sequence: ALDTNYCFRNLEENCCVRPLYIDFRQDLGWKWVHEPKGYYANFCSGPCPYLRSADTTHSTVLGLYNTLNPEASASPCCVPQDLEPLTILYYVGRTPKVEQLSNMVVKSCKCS
Protocol: as §1, §2

[3] = target: T3, human TGFβ1, mature receptor-binding domain (human, UniProt P01137 279-390); assay: cell-based or functional assay
T3 sequence (P01137 279-390 limits assumed): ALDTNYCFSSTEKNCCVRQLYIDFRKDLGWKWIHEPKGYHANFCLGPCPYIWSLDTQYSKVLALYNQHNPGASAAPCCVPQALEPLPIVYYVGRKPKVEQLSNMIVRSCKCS

[4] = target: T1, human TGFβ2, mature receptor-binding …; assay: cell-based or functional assay
[5] = target: T2, human TGFβ3, mature dimeric form; assay: cell-based or functional assay
[6] = target: T1, human TGFβ2, mature receptor-binding …; assay: BIAcore T200; remark: listed apart in the source
Protocol: as §1, §2

[7] = target: T2, human TGFβ3, mature dimeric form; assay: BIAcore T200; remark: listed apart in the source
Protocol: as §1, §2

[8] = target: T3, human TGFβ1, mature receptor-binding …; assay: cell-based or functional assay; remark: listed apart in the source
[9] = target: T1, human TGFβ2, mature receptor-binding …; assay: cell-based or functional assay; remark: listed apart in the source
[10] = target: T2, human TGFβ3, mature dimeric form; assay: cell-based or functional assay; remark: listed apart in the source
[11] = target: T1, human TGFβ2, mature receptor-binding …; assay: BIAcore T200; remark: listed apart in the source
Protocol: as §1

[12] = target: T2, human TGFβ3, mature dimeric form; assay: BIAcore T200; remark: listed apart in the source
Protocol: as §1

[13] = target: T2, human TGFβ3, mature dimeric form; assay: cell-based or functional assay; remark: listed apart in the source
[14] = target: T3, human TGFβ1, mature receptor-binding …; assay: cell-based or functional assay; remark: listed apart in the source
[15] = target: T1, human TGFβ2, mature receptor-binding …; assay: cell-based or functional assay; remark: listed apart in the source
[16] = target: T2, human TGFβ3, mature dimeric form; assay: cell-based or functional assay; remark: listed apart in the source

Row | Binder | Kd [1] [pM] | Kd [2] [pM] | HEKBlue TGFβ blocking IC50 [3] [nM] | HEKBlue TGFβ blocking IC50 [4] [nM] | HEKBlue TGFβ blocking IC50 [5] [nM] | Kd [6] [pM] | Kd [7] [nM] | HEKBlue TGFβ blocking IC50 [8] [nM] | HEKBlue TGFβ blocking IC50 [9] [nM] | HEKBlue TGFβ blocking IC50 [10] [nM] | also measured
1 | B1 | 1 | ≤ 1.3 | > 200 | 0.05 | 0.09 | – | – | – | – | – | –
2 | B2 | – | – | – | – | – | 10 | 0.0101 | > 200 | 1.9 | 0.08 | –
3 | B3 | – | – | – | – | – | 8.2 | 0.0141 | > 200 | > 200 | 0.66 | –
4 | B4 | 1.3 | 3.2 | > 200 | 0.16 | 0.17 | – | – | – | – | – | –
5 | B5 | 4.9 | 6.6 | > 200 | 0.09 | 0.13 | – | – | – | – | – | –
6 | B6 | 1.1 | 4.6 | > 200 | 0.09 | 0.11 | – | – | – | – | – | –
7 | B7 | – | – | – | – | – | – | – | – | – | – | Kd [11]: 0.921 nM; Kd [12]: 3.2 pM; fold loss of TGFβ3 blocking against h2A10.v2 [13]: > 10 fold; HEKBlue TGFβ blocking IC50 [14]: > 200 nM; HEKBlue TGFβ blocking IC50 [15]: > 200 nM; HEKBlue TGFβ blocking IC50 [16]: 0.12 nM
8 | B8 | – | – | – | – | – | – | – | – | – | – | Kd [11]: 0.768 nM; Kd [12]: 0.7 pM; HEKBlue TGFβ blocking IC50 [14]: > 200 nM; HEKBlue TGFβ blocking IC50 [15]: > 200 nM; HEKBlue TGFβ blocking IC50 [16]: 0.01 nM
9 | B9 | – | – | – | – | – | 4.6 | 0.0144 | > 200 | > 200 | > 200 | –
10 | B10 | – | – | – | – | – | 12.1 | 0.0139 | > 200 | > 200 | 1.4 | –
11 | B11 | – | – | – | – | – | 8.4 | 0.0125 | > 200 | > 200 | 6.7 | –
12 | B12 | – | – | – | – | – | 1.4 | 0.0133 | > 200 | > 200 | > 200 | –
13 | B13 | – | – | – | – | – | 9.6 | 0.0121 | > 200 | 3.9 | 0.23 | –
